# Values of other authors, collected in publication PMC11987431.
# Target: IL-6 receptor (Rattus norvegicus) (UniProt P22273)
# UniProt P22273, sequence (P22273 20-364, chain 1 of 2): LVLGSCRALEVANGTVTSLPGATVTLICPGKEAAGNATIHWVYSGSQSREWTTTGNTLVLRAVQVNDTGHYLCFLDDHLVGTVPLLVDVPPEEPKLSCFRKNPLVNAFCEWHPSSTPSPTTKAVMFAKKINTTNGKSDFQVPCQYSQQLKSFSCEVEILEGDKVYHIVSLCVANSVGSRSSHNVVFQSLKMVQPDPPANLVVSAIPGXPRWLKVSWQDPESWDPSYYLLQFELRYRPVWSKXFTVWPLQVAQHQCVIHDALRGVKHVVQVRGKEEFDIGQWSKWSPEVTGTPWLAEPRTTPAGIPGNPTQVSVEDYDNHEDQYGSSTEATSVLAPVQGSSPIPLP
# UniProt P22273, sequence (P40190 23-618, chain 2 of 2, further chain): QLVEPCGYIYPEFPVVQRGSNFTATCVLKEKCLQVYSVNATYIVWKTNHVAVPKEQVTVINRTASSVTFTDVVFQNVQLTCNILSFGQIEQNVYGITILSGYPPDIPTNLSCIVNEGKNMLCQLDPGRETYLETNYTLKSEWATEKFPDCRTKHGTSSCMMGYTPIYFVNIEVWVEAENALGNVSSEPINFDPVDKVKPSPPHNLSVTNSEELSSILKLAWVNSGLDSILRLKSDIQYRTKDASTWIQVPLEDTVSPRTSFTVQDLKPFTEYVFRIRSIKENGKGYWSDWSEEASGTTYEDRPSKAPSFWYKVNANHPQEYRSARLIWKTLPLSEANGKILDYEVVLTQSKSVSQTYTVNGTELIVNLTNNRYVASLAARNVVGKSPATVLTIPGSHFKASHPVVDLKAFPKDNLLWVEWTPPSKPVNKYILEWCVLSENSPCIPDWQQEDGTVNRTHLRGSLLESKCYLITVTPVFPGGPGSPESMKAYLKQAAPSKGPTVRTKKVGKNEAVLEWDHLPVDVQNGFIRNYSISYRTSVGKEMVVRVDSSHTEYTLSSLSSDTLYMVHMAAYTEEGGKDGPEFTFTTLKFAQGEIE
# IL-6, sequence (P20607 25-211): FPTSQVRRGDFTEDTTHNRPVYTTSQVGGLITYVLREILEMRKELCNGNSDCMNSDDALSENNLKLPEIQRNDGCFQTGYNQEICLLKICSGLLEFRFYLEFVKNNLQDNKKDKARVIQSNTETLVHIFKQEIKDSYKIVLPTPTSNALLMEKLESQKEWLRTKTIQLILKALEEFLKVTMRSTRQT
substance,measurement,value
IL-6 (from UniProt P20607),Kd,0.015 nM
